Data on one molecule can be found in paper PMC5757173.

The target in test [1] is FITC (fluorescein isothiocyanate)-labeled RAR (RARΔAB, His-tag). Nature of the test: fluorescence polarisation; fluorescence anisotropy; FEZ1 (1 nM to 5000 nM) titrated into 50 nM FITC-labeled RAR; 20 mM Tris pH 8.0, 50 mM NaCl, 2 mM EDTA; 10 °C; absence of all-trans retinoic acid.
Test [2] has the same target. Nature of the test: fluorescence polarisation; fluorescence anisotropy; FEZ1 (1 nM to 5000 nM) titrated into 50 nM FITC-labeled RAR; 20 mM Tris pH 8.0, 50 mM NaCl, 2 mM EDTA; 10 °C; presence of all-trans retinoic acid (AT). In general terms: In fluorescence polarisation assays a small probe gives low polarisation when free and higher when bound to something large.

B1: Fasciculation and elongation zeta-1 (1-392) protein fused to an N-terminal 6xHis-tag (natural protein)
chain: MEAPLVSLDEEFEDLRPSCSEDPEEKPQCFYGSSPHHLEDPSLSELENFSSEIISFKSMEDLVNEFDEKLNVCFRNYNAKTENLAPVKNQLQIQEEEETLQDEEVWDALTDNYIPSLSEDWRDPNIEALNGNCSDTEIHEKEEEEFNEKSENDSGINEEPLLTADQVIEEIEEMMQNSPDPEEEEEVLEEEDGGETSSQADSVLLQEMQALTQTFNNNWSYEGLRHMSGSELTELLDQVEGAIRDFSEELVQQLARRDELEFEKEVKNSFITVLIEVQNKQKEQRELMKKRRKEKGLSLQSSRIEKGNQMPLKRFSMEGISNILQSGIRQTFGSSGTDKQYLNTVIPYEKKASPPSVEDLQMLTNILFAMKEDNEKVPTLLTDYILKVLCPT
In the case of B1, the Kd was found to be 3.4 µM in test [1] and 3.8 µM in test [2].

Usually Kd stands for the concentration at which binding is half-saturated.
